Changes are numbered by the printed parent chain.
B1: Ala63Pro: SULT2A1 allozyme having a proline at amino acid residue 63 in place of alanine (protein, UniProt Q06520 1-285, looked up, variant A63P)
Sulfotransferase 2A1: MSDDFLWFEGIAFPTMGFRSETLRKVRDEFVIRDEDVIILTYPKSGTNWLAEILCLMHSKGDPKWIQSVPIWERSPWVESEIGYTALSETESPRLFSSHLPIQLFPKSFFSSKAKVIYLMRNPRDVLVSGYFFWKNMKFIKKPKSWEEYFEWFCQGTVLYGSWFDHIHGWMPMREEKNFLLLSYEELKQDTGRTIEKICQFLGKTLEPEELNLILKNSSFQSMKENKMSNYSLLSVDYVVDKAQLLRKGVSGDWKNHFTVAQAEDFDKLFQEKMADLPRELFPWE
B2: Ala261Thr: SULT2A1 allozyme having a threonine at amino acid 261 in place of an alanine (protein)
chain: B1 Sulfotransferase 2A1 with P63A, T90S, A261T
B3: 63Pro/261Thr: SULT2A1 polypeptide with a proline at position 63 and a threonine at position 261 (double variant) (protein, UniProt Q06520 1-285, looked up, variant A63P A261T)
Sulfotransferase 2A1: B1 Sulfotransferase 2A1 with A261T
B4: Lys227Glu: SULT2A1 allozyme having a glutamate at amino acid residue 227 in place of a lysine (protein, UniProt Q06520 1-285, looked up, variant K227E)
Sulfotransferase 2A1: B1 Sulfotransferase 2A1 with P63A, K227E
B5: WT: recombinant wild type (reference) human SULT2A1 polypeptide, SEQ ID NO:3, expressed in COS-1 cells (protein, listed as Homo Sapiens)
chain: B1 Sulfotransferase 2A1 with P63A, T90S

test system: SULT2A1; experiment: SULT2A1 enzyme activity assay: sulfate conjugation of DHEA with 35S-PAPS, COS-1 cytosol preparations of recombinant allozymes; assay type: biochemical, human; conditions: not given
Method: Activity of SULT2A1 polypeptides can be altered relative to the reference SULT2A1 polypeptide. […] Other allozymes can have increased activity relative to the reference SULT2A1 polypeptide. Activity of SULT2A1 polypeptides can be assessed in vitro using a sulfate acceptor substrate such as DHEA and a donor sulfate molecule such as PAPS. In general, recombinant SULT2A1 polypeptides can be incubated at 37° C. with 0.4 μM ^35S-PAPS and 5 μM DHEA in a potassium phosphate buffer (5 mM, pH 6.5). Reactions can be stopped by precipitating PAPS and SULT2A1 polypeptide (e.g., with barium hydroxide, barium acetate, and zinc sulfate). After centrifugation of the reaction, radioactivity in the supernatant is assessed. SULT2A1 activity is expressed as nmoles of sulfate conjugated product formed per hour of incubation. See, Campbell, N. R. C. et al., Biochem. Pharmacol., 36:1435-1446 (1987).
COS-1 cell expression: Five different SULT2A1 expression constructs were made using the pCR3.1 expression vector. Four of the constructs were designed to express SULT2A1 allozymes, while the remaining construct was designed to express a wild type SULT2A1 polypeptide. All SULT2A1 cDNA sequences containing SULT2A1 nucleotide sequence variants used to create the expression constructs were created by site directed mutagenesis using the method described by Ho et al., Gene 77(1):51-9 (1989). Each SULT2A1 cDNA was amplified by PCR and subcloned into the eukaryotic expression vector pCR3.1 (Promega, Madison, Wis.). After subcloning, all inserts were sequenced to assure that no spurious nucleotide point mutations had been introduced during the PCR amplifications. […] As a control, a transfection was also performed with “empty” pCR3.1, i.e., vector lacking an insert, to make it possible to correct for endogenous COS-1 cell SULT activity. The control plasmid pSV-β-galactosidase (Promega) was cotransfected with each SULT2A1 construct to make it possible to correct for transfection efficiency. Two independent transfections, each consisting of three separate plates, were performed with each of the expression constructs.
After 48 hours in culture, the transfected cells were harvested and high speed supernatant (HSS) cytosol preparations were prepared as described by Wood, T. C. et al., Biochem. Biophys. Res. Commun., 198:1119-1127 (1994). Aliquots of these cytosol preparations were stored at −80° C. prior to assay.
Enzyme Assays: β-galactosidase activity in each of the COS-1 HSS preparations was measured with the β-galactosidase Enzyme Assay System (Promega, Madison, Wis.). These HSS preparations of recombinant SULT2A1 allozymes were used for the activity studies without any further purification. The protein concentration of each recombinant protein preparation was determined by the dye-binding method of Bradford with bovine serum albumin (BSA) as a standard.
SULT2A1 enzyme activity was measured with an assay that involves sulfate conjugation of a sulfate acceptor substrate, DHEA, in the presence of the sulfate donor 3′-phosphoadenosine-5′-phosphosulfate (PAPS). See, Campbell, N. R. C. et al., Biochem. Pharmacol., 36:1435-1446 (1987). Briefly, 0.4 μM ^35S-PAPS and a HSS preparation were reacted with 5 μM DHEA in 5 mM potassium phosphate buffer at pH 6.5. […] Cytosol from COS-1 cells that had been transfected with empty pCR3.1 was used to correct for endogenous SULT activity. Because SULTs display profound substrate inhibition, DHEA concentrations that ranged from 100 pM to 1 mM were tested with each recombinant allozyme to ensure that the assays were performed at DHEA concentrations that yielded maximal activity for that allozyme. Enzyme activity was expressed as nanomoles (nmoles) of sulfate conjugated product formed per hour of incubation. Apparent Km values for PAPS were determined in the presence of 5 μM DHEA with six PAPS concentrations that varied from 0.0625 μM to 2 μM. […]

activity relative to the reference SULT2A1 polypeptide (in words) | Molecule
reduced activity | B1
reduced activity | B3
reduced activity | B4

Molecule | activity relative to the reference SULT2A1 polypeptide (in words)
B2 | comparable to the reference SULT2A1 polypeptide

same assay, conditions: apparent Km for DHEA; read-out: DHEA Km

Molecule | Km
B1 | 0.21 ± 0.01 µM
B2 | 0.245 ± 0.012 µM
B5 | 0.247 ± 0.071 µM
B3 | 0.29 ± 0.012 µM
B4 | 0.905 ± 0.053 µM

same assay, conditions: apparent Km for PAPS in the presence of 5 μM DHEA; read-out: PAPS Km

Molecule | Km
B1 | 0.0082 ± 0.00132 µM
B2 | 0.0227 ± 0.00062 µM
B5 | 0.0218 ± 0.00086 µM
B3 | 0.0114 ± 0.0003 µM
B4 | 0.0102 ± 0.00096 µM

same assay, conditions: percentage of WT SULT2A1 enzyme activity; 5 μM DHEA, 0.4 μM 35S-PAPS; COS-1 cytosol; corrected for transfection efficiency

Molecule | Enzyme Activity (%)
B1 | 57%
B5 | 100%
B3 | 42%
B4 | 15%

same assay, conditions: ratio of enzymatic activity to immunoreactive protein

Molecule | Enzyme activity: immunoreactive protein
B1 | 2.1
B2 | 1.2
B5 | 1.0
B3 | 1.6
B4 | 7.5

same assay, conditions: reduction relative to wild type

Molecule | decrease in enzyme activity
B1 | 43%
B2 | 85%
